# T1: human beta-Klotho (human, UniProt Q86Z14 1-1044)
# T1 sequence (looked up): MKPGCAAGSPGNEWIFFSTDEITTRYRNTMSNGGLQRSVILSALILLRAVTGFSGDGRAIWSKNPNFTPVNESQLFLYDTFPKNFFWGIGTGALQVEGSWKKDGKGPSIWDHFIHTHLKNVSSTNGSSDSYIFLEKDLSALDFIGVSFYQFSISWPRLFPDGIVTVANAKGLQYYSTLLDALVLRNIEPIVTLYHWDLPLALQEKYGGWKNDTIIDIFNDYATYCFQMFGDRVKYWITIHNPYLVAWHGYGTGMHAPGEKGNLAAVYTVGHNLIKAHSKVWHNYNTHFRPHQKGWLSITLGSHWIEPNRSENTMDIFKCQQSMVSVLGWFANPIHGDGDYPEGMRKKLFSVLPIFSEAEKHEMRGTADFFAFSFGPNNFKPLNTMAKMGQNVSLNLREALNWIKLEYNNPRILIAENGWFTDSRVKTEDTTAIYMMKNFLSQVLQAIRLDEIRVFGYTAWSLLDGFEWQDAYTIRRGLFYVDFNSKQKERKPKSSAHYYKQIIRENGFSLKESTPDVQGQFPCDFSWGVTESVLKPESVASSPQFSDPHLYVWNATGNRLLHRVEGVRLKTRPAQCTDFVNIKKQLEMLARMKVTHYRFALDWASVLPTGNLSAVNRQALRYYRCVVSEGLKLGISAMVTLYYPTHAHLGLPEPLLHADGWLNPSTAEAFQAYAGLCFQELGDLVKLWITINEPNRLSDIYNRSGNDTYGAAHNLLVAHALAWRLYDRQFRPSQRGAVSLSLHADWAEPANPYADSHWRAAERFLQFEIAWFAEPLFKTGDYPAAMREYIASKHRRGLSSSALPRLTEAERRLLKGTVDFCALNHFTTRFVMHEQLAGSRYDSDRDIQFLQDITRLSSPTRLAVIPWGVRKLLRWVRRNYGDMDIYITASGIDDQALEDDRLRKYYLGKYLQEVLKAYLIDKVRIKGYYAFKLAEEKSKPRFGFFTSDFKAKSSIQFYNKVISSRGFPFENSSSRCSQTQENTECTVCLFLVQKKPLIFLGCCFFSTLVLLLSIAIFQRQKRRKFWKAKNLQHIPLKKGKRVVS
# Experiments:
# human beta-Klotho = target: T1, human beta-Klotho; experiment: cell-based or functional assay
# human GLP-1 receptor = human GLP-1 receptor (human, UniProt P43220 24-463); experiment: cell-based or functional assay
"FGF21 activity (EC50, nM); p-ERK levels (human beta-Klotho) [nM]","GLP-1 activity (EC50, pM); CRE luciferase reporter (human GLP-1 receptor) [pM]",Binder
7.3,16.8,"Compound 15 (ligand, Moiety A (HOOC-(CH2)16-CO-gGlu-2XADO) on 231K of fusion polypeptide) HGEGTFTSDVSSYLEEQAAREFIAWLVRGGGGGGGSGGGGSGGGGSGGGGSHPIPDSSPLLQFGGQVRQRYLYTDDAQQTEAHLEIREDGTVGGAADQSPESLLQLRALRPGVIQILGVRTSRFLCQRPDGALYGSLHFDPEACSFRELLLEDGYNVYQSEAHGLPLHLPGQRSPHRDPAPRGPARFLPLPGLPPALPEPPGILAPQPPDVGSSDPLSLVGPSQGRSPSYKS"
4.1,17,"Compound 12 (ligand, Moiety A (HOOC-(CH2)16-CO-gGlu-2XADO) on 225K of fusion polypeptide) HGEGTFTSDVSSYLEEQAAREFIAWLVRGGGGGGGSGGGGSGGGGSGGGGSHPIPDSSPLLQFGGQVRQRYLYTDDAQQTEAHLEIREDGTVGGAADQSPESLLQLRALRPGVIQILGVRTSRFLCQRPDGALYGSLHFDPEACSFRELLLEDGYNVYQSEAHGLPLHLPGQRSPHRDPAPRGPARFLPLPGLPPALPEPPGILAPQPPDVGSSDPLSLVGGSQKRSPSYES"
3.9,18.2,"Compound 11 (ligand, Moiety A (HOOC-(CH2)16-CO-gGlu-2XADO) on 221K of fusion polypeptide) HGEGTFTSDVSSYLEEQAAREFIAWLVRGGGGGGGSGGGGSGGGGSGGGGSHPIPDSSPLLQFGGQVRQRYLYTDDAQQTEAHLEIREDGTVGGAADQSPESLLQLRALRPGVIQILGVRTSRFLCQRPDGALYGSLHFDPEACSFRELLLEDGYNVYQSEAHGLPLHLPGQRSPHRDPAPRGPARFLPLPGLPPALPEPPGILAPQPPDVGSSDPLSLVKPSQGRSPSYES"
4.5,17.6,"Compound 10 (ligand, Moiety A (HOOC-(CH2)16-CO-gGlu-2XADO) on 222K of fusion polypeptide) HGEGTFTSDVSSYLEEQAAREFIAWLVRGGGGGGGSGGGGSGGGGSGGGGSHPIPDSSPLLQFGGQVRQRYLYTDDAQQTEAHLEIREDGTVGGAADQSPESLLQLRALRPGVIQILGVRTSRFLCQRPDGALYGSLHFDPEACSFRELLLEDGYNVYQSEAHGLPLHLPGQRSPHRDPAPRGPARFLPLPGLPPALPEPPGILAPQPPDVGSSDPLSLVGKSQGRSPSYES"
17.6,36.8,"Compound 21 (ligand, Moiety A (HOOC-(CH2)16-CO-gGlu-2XADO) on 51K and 225K of fusion polypeptide) HGEGTFTSDVSSYLEEQAAREFIAWLVRGGGGGGGSGGGGSGGGGSGGGGKHPIPDSSPLLQFGGQVRQRYLYTDDAQQTEAHLEIREDGTVGGAADQSPESLLQLRALRPGVIQILGVRTSRFLCQRPDGALYGSLHFDPEACSFRELLLEDGYNVYQSEAHGLPLHLPGQRSPHRDPAPRGPARFLPLPGLPPALPEPPGILAPQPPDVGSSDPLSLVGGSQKRSPSYES"
10.6,,Native FGF21 (ligand) HPIPDSSPLLQFGGQVRQRYLYTDDAQQTEAHLEIREDGTVGGAADQSPESLLQLKALKPGVIQILGVKTSRFLCQRPDGALYGSLHFDPEACSFRELLLEDGYNVYQSEAHGLPLHLPGNKSPHRDPAPRGPARFLPLPGLPPALPEPPGILAPQPPDVGSSDPLSMVGPSQGRSPSYAS
8.4,,"Compound 42 (ligand, Moiety A (HOOC-(CH2)16-CO-gGlu-2XADO) on 71K and 242K of fusion polypeptide) HGEGTFTSDVSSYLEEQAAREFIAWLVRGGGGAQPGAQPGAQPGAQPGAQPGAQPGAQPGAQPGAQPGAQKHPIPDSSPLLQFGGQVRQRYLYTDDAQQTEAHLEIREDGTVGGAADQSPESLLQLRALRPGVIQILGVRTSRFLCQRPDGALYGSLHFDPEACSFRELLLEDGYNVYQSEAHGLPLHLPGQRSPHRDPAPRGPARFLPLPGLPPALPEPPGILAPQPPDVGSSDPLSLVGKSQGRSPSYES"
7,50.4,"Compound 22 (ligand, Moiety A (HOOC-(CH2)16-CO-gGlu-2XADO) on 51K and 231K of fusion polypeptide) HGEGTFTSDVSSYLEEQAAREFIAWLVRGGGGGGGSGGGGSGGGGSGGGGKHPIPDSSPLLQFGGQVRQRYLYTDDAQQTEAHLEIREDGTVGGAADQSPESLLQLRALRPGVIQILGVRTSRFLCQRPDGALYGSLHFDPEACSFRELLLEDGYNVYQSEAHGLPLHLPGQRSPHRDPAPRGPARFLPLPGLPPALPEPPGILAPQPPDVGSSDPLSLVGGSQGRSPSYK"
19,33.2,"Compound 14 (ligand, Moiety A (HOOC-(CH2)16-CO-gGlu-2XADO) on 222K of fusion polypeptide) HGEGTFTSDVSSYLEEQAAREFIAWLVRGGGGQEPGQEPGQEPGQEPGQEPHPIPDSSPLLQFGGQVRQRYLYTDDAQQTEAHLEIREDGTVGGAADQSPESLLQLRALRPGVIQILGVRTSRFLCQRPDGALYGSLHFDPEACSFRELLLEDGYNVYQSEAHGLPLHLPGQRSPHRDPAPRGPARFLPLPGLPPALPEPPGILAPQPPDVGSSDPLSLVGKSQGRSPSYES"

# Continued, binder first:
Binder,"FGF21 activity (EC50, nM); p-ERK levels (human beta-Klotho) [nM]","GLP-1 activity (EC50, pM); CRE luciferase reporter (human GLP-1 receptor) [pM]"
"Compound 40 (ligand, Moiety A (HOOC-(CH2)16-CO-gGlu-2XADO) on 111K and 282K of fusion polypeptide) HGEGTFTSDVSSYLEEQAAREFIAWLVRGGGGAQPGAQPGAQPGAQPGAQPGAQPGAQPGAQPGAQPGAQPGAQPGAQPGAQPGAQPGAQPGAQPGAQPGAQPGAQPGAQKHPIPDSSPLLQFGGQVRQRYLYTDDAQQTEAHLEIREDGTVGGAADQSPESLLQLRALRPGVIQILGVRTSRFLCQRPDGALYGSLHFDPEACSFRELLLEDGYNVYQSEAHGLPLHLPGQRSPHRDPAPRGPARFLPLPGLPPALPEPPGILAPQPPDVGSSDPLSLVGKSQGRSPSYES",8,
"Compound 9 (ligand, Moiety A (HOOC-(CH2)16-CO-gGlu-2XADO) on 231K of fusion polypeptide) HGEGTFTSDVSSYLEEQAAREFIAWLVRGGGGGGGSGGGGSGGGGSGGGGSHPIPDSSPLLQFGGQVRQRYLYTDDAQQTEAHLEIREDGTVGGAADQSPESLLQLRALRPGVIQILGVRTSRFLCQRPDGALYGSLHFDPEACSFRELLLEDGYNVYQSEAHGLPLHLPGQRSPHRDPAPRGPARFLPLPGLPPALPEPPGILAPQPPDVGSSDPLSLVGGSQGRSPSYKS",4.9,19.9
"Compound 19 (ligand, Moiety A (HOOC-(CH2)16-CO-gGlu-2XADO) on 51K and 222K of fusion polypeptide) HGEGTFTSDVSSYLEEQAAREFIAWLVRGGGGGGGSGGGGSGGGGSGGGGKHPIPDSSPLLQFGGQVRQRYLYTDDAQQTEAHLEIREDGTVGGAADQSPESLLQLRALRPGVIQILGVRTSRFLCQRPDGALYGSLHFDPEACSFRELLLEDGYNVYQSEAHGLPLHLPGQRSPHRDPAPRGPARFLPLPGLPPALPEPPGILAPQPPDVGSSDPLSLVGKSQGRSPSYES",13.6,20.3
"Compound 20 (ligand, Moiety A (HOOC-(CH2)16-CO-gGlu-2XADO) on 51K and 221K of fusion polypeptide) HGEGTFTSDVSSYLEEQAAREFIAWLVRGGGGGGGSGGGGSGGGGSGGGGKHPIPDSSPLLQFGGQVRQRYLYTDDAQQTEAHLEIREDGTVGGAADQSPESLLQLRALRPGVIQILGVRTSRFLCQRPDGALYGSLHFDPEACSFRELLLEDGYNVYQSEAHGLPLHLPGQRSPHRDPAPRGPARFLPLPGLPPALPEPPGILAPQPPDVGSSDPLSLVKPSQGRSPSYES",10.6,39.1
"Compound 2 (ligand, Moiety A (HOOC-(CH2)16-CO-gGlu-2XADO) on 20K and 231K of fusion polypeptide) HGEGTFTSDVSSYLEEQAAKEFIAWLVRGGGGGGGSGGGGSGGGGSGGGGSHPIPDSSPLLQFGGQVRQRYLYTDDAQQTEAHLEIREDGTVGGAADQSPESLLQLRALRPGVIQILGVRTSRFLCQRPDGALYGSLHFDPEACSFRELLLEDGYNVYQSEAHGLPLHLPGQRSPHRDPAPRGPARFLPLPGLPPALPEPPGILAPQPPDVGSSDPLSLVGGSQGRSPSYKS",5.5,46.6
"Compound 39 (ligand, Moiety A (HOOC-(CH2)16-CO-gGlu-2XADO) on 71K and 242K of fusion polypeptide) HGEGTFTSDVSSYLEEQAAREFIAWLVRGGGGGGGSGGGGSGGGGSGGGGSGGGGSGGGGSGGGGSGGGGKHPIPDSSPLLQFGGQVRQRYLYTDDAQQTEAHLEIREDGTVGGAADQSPESLLQLRALRPGVIQILGVRTSRFLCQRPDGALYGSLHFDPEACSFRELLLEDGYNVYQSEAHGLPLHLPGQRSPHRDPAPRGPARFLPLPGLPPALPEPPGILAPQPPDVGSSDPLSLVGKSQGRSPSYES",4.2,12.6
"Compound 13 (ligand, Moiety A (HOOC-(CH2)16-CO-gGlu-2XADO) on 222K of fusion polypeptide) HGEGTFTSDVSSYLEEQAAREFIAWLVRGGGGAQPGAQPGAQPGAQPGAQPHPIPDSSPLLQFGGQVRQRYLYTDDAQQTEAHLEIREDGTVGGAADQSPESLLQLRALRPGVIQILGVRTSRFLCQRPDGALYGSLHFDPEACSFRELLLEDGYNVYQSEAHGLPLHLPGQRSPHRDPAPRGPARFLPLPGLPPALPEPPGILAPQPPDVGSSDPLSLVGKSQGRSPSYES",9.1,19.6
